# In article PMC4196948:
# Where “and” joins values, the source holds several entries; their conditions need not be identical. Equal entries are not always repeated.
# Experiments:
# [1] = molecular target: tcSOD truncation mutant M202 (residues 1-201) (not stated (metagenomic library of hot springs in Tengchong, China)); assay: cross-linking; glutaraldehyde, 20 mM sodium phosphate pH 7.4, after heating at 25°C or 80°C for 50 min, cross-linked 1 or 5 min; read by 12.5% SDS-PAGE
# [2] = molecular target: wild type tcSOD (hyperthermostable Fe-superoxide dismutase from Tengchong hot springs) (not stated (metagenomic library of hot springs in Tengchong, China)); assay: native gel or EMSA; 10% native-PAGE (also 5-15% gradient native-PAGE), 20 mM PBS pH 7.4, 0.1-1.0 mg/ml (mutants 1 mg/ml); the predominant oligomer (quaternary structure)
# [3] = molecular target: wild type tcSOD (hyperthermostable Fe-superoxide dismutase from Tengchong hot springs) (not stated (metagenomic library of hot springs in Tengchong, China)); assay: cross-linking; 0.5 mM DSP for 10 min after 50 min at the given temperature, without DTT; read by SDS-PAGE and native-PAGE
# [4] = molecular target: wild type tcSOD (hyperthermostable Fe-superoxide dismutase from Tengchong hot springs) (not stated (metagenomic library of hot springs in Tengchong, China)); assay: SEC; Superdex 200HR 10/30, 20 mM sodium phosphate pH 7.4, 25°C, 0.5 ml/min; protein 0.1 to 1.0 mg/ml, not cross-linked
# [5] = molecular target: wild type tcSOD (hyperthermostable Fe-superoxide dismutase from Tengchong hot springs) (not stated (metagenomic library of hot springs in Tengchong, China)); assay: cross-linking; glutaraldehyde, 20 mM sodium phosphate pH 7.4, after heating at 25°C or 80°C for 50 min, cross-linked 1 or 5 min; read by 12.5% SDS-PAGE
# [6] = molecular target: wild type tcSOD (hyperthermostable Fe-superoxide dismutase from Tengchong hot springs) (not stated (metagenomic library of hot springs in Tengchong, China)); assay: native gel or EMSA; tetramers and high-order oligomers separated by ion exchange (Resource Q), concentrated to 0.3 mg/ml, heated at 80°C or 95°C, then 10% native-PAGE; step: tetramers to octamers
# [7] = molecular target: wild type tcSOD (hyperthermostable Fe-superoxide dismutase from Tengchong hot springs) (not stated (metagenomic library of hot springs in Tengchong, China)); assay: native gel or EMSA; 10% native-PAGE (also 5-15% gradient), 20 mM PBS pH 7.4, 0.1-1.0 mg/ml (mutants 1 mg/ml), bands quantified by GIS software; step: tetramers to high-order oligomers; fractions almost unchanged with 0-5 M NaCl, pH 3-11 or 80°C for 60 min
stoichiometry N [1],stoichiometry N [2],stoichiometry N [3],stoichiometry N [4],stoichiometry N [5],stoichiometry N [6],fraction of high-order oligomers (at 0.1 mg/ml) [7] [%],fraction of high-order oligomers (at 1.0 mg/ml) [7] [%],stoichiometry N [7],Substance
4 and 2,,,,,,,,,tcSOD truncation mutant M202 (residues 1-201) (domain or fragment)
,4,2,4,4 and 2,8,1.5,5,> 8,wild type tcSOD (hyperthermostable Fe-superoxide dismutase from Tengchong hot springs) (enzyme)
